In article PMC4824355, “Translocator Protein-Mediated Stabilization of Mitochondrial Architecture during Inflammation Stress in Colonic Cells” (PLoS ONE, 2016):
Several values for one entry are separate records, joined by “and”; a condition that tells them apart may be missing. Identical values can stand only once.

Target: the molecule itself
Assay: SDS-PAGE and immunoblot of detergent-solubilised mitochondrial membranes; HT-29 mitochondrial membranes solubilised in SDS or 0.1% DDM, 4%-12% Tris-glycine SDS-PAGE, anti-TSPO blot; cells untreated or treated with 10 ng/mL TNF, 1 uM PK 11195 or both for 24, 48 or 72 h

B1: translocator protein (18 kDa; tryptophan-rich sensory protein oxygen sensor, TSPO) (natural protein, human (endogenous in HT-29), UniProt P30536 1-169, looked up)
chain: MAPPWVPAMGFTLAPSLGCFVGSRFVHGEGLRWYAGLQKPSWHPPHWVLGPVWGTLYSAMGYGSYLVWKELGGFTEKAVVPLGLYTGQLALNWAWPPIFFGARQMGWALVDLLLVSGAAAATTVAWYQVSPLAARLLYPYLAWLAFTTTLNYCVWRDNHGWRGGRRLPE
notes: translocator protein (18 kDa), TSPO, human, endogenous in HT-29 colon carcinoma cells; Seen as monomer, dimer and trimer bands on an anti-TSPO blot; also called peripheral-type benzodiazepine receptor; mitochondrial translocator protein; source: endogenous, HT-29 mitochondrial membranes solubilised with SDS or 0.1% DDM
  stoichiometry N: 3 and 2
